# Measured values taken from paper PMC4666776.
# Assays:
# [1] = biological target: biotinylated nanobody S33 (llama (Lama glama)); assay: ELISA
# [2] = biological target: biotinylated nanobody S7 (llama (Lama glama)); assay: ELISA
binder,measurement,setting,value
recombinant human soluble epoxide hydrolase (enzyme) MTLRAAVFDLDGVLALPAVFGVLGRTEEALALPRGLLNDAFQKGGPEGATTRLMKGEITLSQWIPLMEENCRKCSETAKVCLPKNFSIKEIFDKAISARKINRPMLQAALMLRKKGFTTAILTNTWLDDRAERDGLAQLMCELKMHFDFLIESCQVGMVKPEPQIYKFLLDTLKASPSEVVFLDDIGANLKPARDLGMVTILVQDTDTALKELEKVTGIQLLNTPAPLPTSCNPSDMSHGYVTVKPRVRLHFVELGSGPAVCLCHGFPESWYSWRYQIPALAQAGYRVLAMDMKGYGESSAPPEIEEYCMEVLCKEMVTFLDKLGLSQAVFIGHDWGGMLVWYMALFYPERVRAVASLNTPFIPANPNMSPLESIKANPVFDYQLYFQEPGVAEAELEQNLSRTFKSLFRASDESVLSMHKVCEAGGLFVNSPEEPSLSRMVTEEEIQFYVQQFKKSGFRGPLNWYRNMERNWKWACKSLGRKILIPALMVTAEKDFVLVPQMSQHMEDWIPHLKRGHIEDCGHWTQMDKPTEVNQILIKWLDSDARNPPVVSKM,SC50 (sEH at 50% signal saturation; detecting Nb S16),[1],4100 ng/mL
same,SC50 (sEH at 50% signal saturation; detecting Nb S49),[1],249 ng/mL
same,SC50 (sEH at 50% signal saturation; detecting HA-tagged Nb S43),[2],3.97 ng/mL
